In experiment [1] the target is EGF antigen on the surface of the NCI-H292 cell membrane (proEGF) (human) (UniProt P01133). Briefly: flow cytometry on NCI-H292 cells, control IgG1 1 µg, PerCP secondary. In general terms: Flow cytometry measures light scatter and fluorescence of single cells or particles in a stream.
The target is the same in experiment [2]. Briefly: flow cytometry on NCI-H292 cells, control IgG1 1 µg, FITC secondary.

For one substance, average fluorescence intensity (back ground) results are on record in US20040038369A1, “Airway-specific trypsin-like enzymes and method of using the same” (priority 2000, published 2004).

EGF antigen on the surface of the NCI-H292 cell membrane (proEGF) (human), sequence (P01133 23-1207): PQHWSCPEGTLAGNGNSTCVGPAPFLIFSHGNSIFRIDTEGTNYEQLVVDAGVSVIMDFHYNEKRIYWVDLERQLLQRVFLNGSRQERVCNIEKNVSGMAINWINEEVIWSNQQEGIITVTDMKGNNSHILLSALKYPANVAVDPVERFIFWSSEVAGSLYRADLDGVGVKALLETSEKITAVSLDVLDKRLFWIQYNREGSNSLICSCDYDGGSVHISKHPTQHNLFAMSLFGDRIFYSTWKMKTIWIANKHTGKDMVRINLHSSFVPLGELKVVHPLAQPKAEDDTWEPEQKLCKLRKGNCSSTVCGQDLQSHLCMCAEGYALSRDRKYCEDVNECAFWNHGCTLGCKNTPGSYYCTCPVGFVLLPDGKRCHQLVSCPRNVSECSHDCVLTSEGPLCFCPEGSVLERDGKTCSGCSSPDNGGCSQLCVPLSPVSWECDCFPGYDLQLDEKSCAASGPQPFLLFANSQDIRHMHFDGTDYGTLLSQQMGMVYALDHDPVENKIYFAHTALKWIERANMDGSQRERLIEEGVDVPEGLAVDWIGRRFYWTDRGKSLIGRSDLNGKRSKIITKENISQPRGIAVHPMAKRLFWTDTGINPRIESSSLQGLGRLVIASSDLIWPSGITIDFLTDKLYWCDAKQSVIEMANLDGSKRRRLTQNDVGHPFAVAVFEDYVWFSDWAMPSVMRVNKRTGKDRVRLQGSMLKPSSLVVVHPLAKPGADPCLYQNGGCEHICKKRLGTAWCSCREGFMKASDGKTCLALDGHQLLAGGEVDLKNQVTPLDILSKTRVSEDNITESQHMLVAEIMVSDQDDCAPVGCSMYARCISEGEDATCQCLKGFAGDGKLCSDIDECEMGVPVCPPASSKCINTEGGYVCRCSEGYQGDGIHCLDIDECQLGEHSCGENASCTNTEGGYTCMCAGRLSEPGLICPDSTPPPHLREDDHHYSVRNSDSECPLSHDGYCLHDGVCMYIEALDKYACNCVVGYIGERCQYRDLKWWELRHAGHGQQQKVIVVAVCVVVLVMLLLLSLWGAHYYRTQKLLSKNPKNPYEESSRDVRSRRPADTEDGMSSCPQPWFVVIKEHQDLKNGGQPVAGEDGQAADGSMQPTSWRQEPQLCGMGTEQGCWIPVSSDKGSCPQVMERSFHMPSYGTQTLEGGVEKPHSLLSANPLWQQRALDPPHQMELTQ

For the substance “normal mouse IgG1 (produced by R & D Corp.) (antibody)”, the results for the average fluorescence intensity (back ground) in experiment [1] and in experiment [2] were 8.44 and 4.62, respectively.
